In patent US20200270339A1 (CEPHALON, published 2020):
Positions count from the first letter of the chain named. Names and notes keep the numbering of the source. Values joined by “and” are separate entries in the source; they are usually repeats but may differ in a detail not shown here. Equal entries are not always repeated. Values belong to the binder of their own block, whether it stands above or below them.

Tests used:
[1] = target: T1, IL-15 E98A co-expressed with IL-15Rα (human, UniProt P40933 49-162); assay: SPR
T1 construct: Purified alanine scan construct, expressed in EXPI293F cells with human IL-15Rα
T1 sequence (P40933 49-162 E146A limits assumed): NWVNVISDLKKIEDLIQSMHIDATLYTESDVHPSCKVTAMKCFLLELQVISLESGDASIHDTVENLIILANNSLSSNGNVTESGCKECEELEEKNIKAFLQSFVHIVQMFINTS
Experimental: (§1) All interactions were measured at 25° C. and the data collection rate was set to 10 Hz. Data from FC2-1 was used for analysis. The resultant sensorgrams were analysed by creating two custom report points, each calculated for a 5 s window starting either 10 s after injection of the sample (‘early binding’) or 10 s before the end of dissociation (‘late binding’). These values were subtracted from the values for the untransfected control and a relative dissociation rate was estimated by first, taking a ratio of these two custom report points (‘late binding’/‘early binding’) and then, taking the resultant values as a fraction of the value calculated for wild-type human IL-15 complexed with the IL-15 Receptor-alpha (data not shown).
(§2) A Protein A Sensor Chip (GE Healthcare) was used to capture Antibody 70a onto the second flow cell to a capture level of 150-200 RU. Purified IL-15 alanine scan constructs were diluted to 10 μg/mL in HBS-EP+ and then a 2-fold dilution series was made. Binding was measured by injection of 45 μL of each dilution at a flow rate of 30 μL/min across both flow cells and allowing 600 s of dissociation time. The chip surface was regenerated between cycles with a 10 sec pulse of 50 mM sodium hydroxide. The running buffer used was HBS-EP+ (GE Healthcare) All interactions were measured at 25° C. and the data collection rate was set to 10 Hz. Data from Fc2-1 was used for analysis and generated sensorgrams were fitted using a 1:1 Langmuir equation (using local Rmax fitting) to determine KD. […] Antibody 70a had low binding to mutated IL-15 with a Q108A substitution.

[2] = target: T2, IL-15 Q101A co-expressed with IL-15Rα (human, UniProt P40933 49-162); assay: SPR
T2 construct: Purified alanine scan construct, expressed in EXPI293F cells with human IL-15Rα
T2 sequence (P40933 49-162 Q149A limits assumed): as the sequence (P40933 49-162 E146A limits assumed) above, with A98E, Q101A counted along it
Experimental: as §1, §2

[3] = target: T3, IL-15 H105A co-expressed with IL-15Rα (human, UniProt P40933 49-162); assay: SPR
T3 construct: Purified alanine scan construct, expressed in EXPI293F cells with human IL-15Rα
T3 sequence (P40933 49-162 H153A limits assumed): as the sequence (P40933 49-162 E146A limits assumed) above, with A98E, H105A counted along it
Experimental: as §1, §2

[4] = target: T4, human IL-15 complexed with the IL-15 Receptor-alpha (human, UniProt P40933 49-162); assay: cell-based or functional assay
Target sequence in this assay (P40933 49-162 limits assumed, one chain of several): as the sequence (P40933 49-162 E146A limits assumed) above, with A98E counted along it

[5] = target: T4, human IL-15 complexed with the IL-15 …; assay: cell-based or functional assay; remark: listed apart in the source
[6] = target: T4, human IL-15 complexed with the IL-15 …; assay: SPR
Target sequence in this assay (P40933 49-162 limits assumed, one chain of several): as the sequence (P40933 49-162 E146A limits assumed) above, with A98E counted along it

[7] = target: T5, IL-4 (UniProt P05112 25-153); assay: SPR, antibody captured on Protein A chip
T5 sequence (looked up): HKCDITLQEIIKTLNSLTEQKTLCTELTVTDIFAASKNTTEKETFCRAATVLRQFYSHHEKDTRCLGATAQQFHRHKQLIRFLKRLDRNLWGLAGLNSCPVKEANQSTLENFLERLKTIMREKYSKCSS

[8] = target: IL-9 (UniProt P15248 19-144); assay: SPR, antibody captured on Protein A chip
Sequence of IL-9 (P15248 19-144 limits assumed): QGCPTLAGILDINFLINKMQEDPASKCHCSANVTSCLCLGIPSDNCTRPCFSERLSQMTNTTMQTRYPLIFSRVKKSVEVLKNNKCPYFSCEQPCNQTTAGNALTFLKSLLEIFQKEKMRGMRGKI

[9] = target: IL-2 (UniProt P60568 21-153); assay: SPR, antibody captured on Protein A chip
Sequence of IL-2 (P60568 21-153 limits assumed): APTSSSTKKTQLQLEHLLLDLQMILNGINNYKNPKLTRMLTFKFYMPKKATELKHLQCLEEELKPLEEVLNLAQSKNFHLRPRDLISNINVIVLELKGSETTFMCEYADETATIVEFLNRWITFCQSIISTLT

[10] = target: T6, uncomplexed IL-15 Receptor α (human); assay: SPR, antibody captured on Protein A chip
T6 construct: also called IL-15Rα; IL15Rα
T6 chain: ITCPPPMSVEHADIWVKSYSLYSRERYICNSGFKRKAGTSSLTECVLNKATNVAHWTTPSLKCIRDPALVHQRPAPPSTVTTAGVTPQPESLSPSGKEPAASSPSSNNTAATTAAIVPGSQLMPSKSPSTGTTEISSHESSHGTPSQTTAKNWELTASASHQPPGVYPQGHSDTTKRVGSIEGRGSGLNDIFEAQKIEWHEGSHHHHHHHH

[11] = target: T7, IL-7 (UniProt P13232 26-177); assay: SPR, antibody captured on Protein A chip
T7 sequence (looked up): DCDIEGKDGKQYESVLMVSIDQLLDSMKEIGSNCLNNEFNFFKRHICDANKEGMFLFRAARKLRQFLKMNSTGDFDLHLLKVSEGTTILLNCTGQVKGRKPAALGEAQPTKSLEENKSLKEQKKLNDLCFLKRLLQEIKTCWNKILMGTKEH

[12] = target: IL-21 (UniProt Q9HBE4 30-162, limits assumed); assay: SPR, antibody captured on Protein A chip
Sequence of IL-21 (Q9HBE4 30-162 limits assumed): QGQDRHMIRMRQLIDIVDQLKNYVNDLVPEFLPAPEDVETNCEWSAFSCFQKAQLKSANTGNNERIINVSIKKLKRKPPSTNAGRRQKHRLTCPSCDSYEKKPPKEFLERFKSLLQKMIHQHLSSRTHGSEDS

[13] = target: T4, human IL-15 complexed with the IL-15 …; assay: subsequent studies, method not restated; subsequent studies; average; analyte form and method not restated
Target sequence in this assay (P40933 49-162 limits assumed, one chain of several): as the sequence (P40933 49-162 E146A limits assumed) above, with A98E counted along it

[14] = target: T4, human IL-15 complexed with the IL-15 …; assay: cell-based or functional assay; remark: listed apart in the source
Target sequence in this assay (P40933 49-162 limits assumed, one chain of several): as the sequence (P40933 49-162 E146A limits assumed) above, with A98E counted along it

[15] = target: T4, human IL-15 complexed with the IL-15 …; assay: SPR, run 6
Target sequence in this assay (P40933 49-162 limits assumed, one chain of several): as the sequence (P40933 49-162 E146A limits assumed) above, with A98E counted along it

[16] = target: T6, uncomplexed IL-15 Receptor α; assay: ELISA and cELISA, hybridoma supernatant
Experimental: Microtiter plates were coated with purified IL-15 or purified IL-15Rα or purified IL-15 complex. Briefly, microtiter plates were coated with purified protein in PBS and then blocked with irrelevant proteins such as bovine serum albumin (BSA) diluted in PBS. Dilutions of hybridoma supernatants were added to each well and incubated for 1-2 hours at 37° C. The plates were washed with PBS/TWEEN® 20, and then incubated with a goat-anti-human IgG Fc-specific polyclonal reagent conjugated to a suitable detection reagent […] for 1 hour at 37° C. […] Hybridomas that produced antibodies showing positive reactivity with the IL-15 complex but not with IL-15Rα were selected for further characterization.
cELISA was carried out as follows. HEK cells were transfected with DNA encoding IL-15 and IL-15Rα such that they expressed the IL-15 complex. The transfected HEK cells were coated onto an ELISA plate and dilutions of hybridoma supernatants was applied to the plate so that it could bind to the IL-15 complex expressed on the surface of the cells. The assay was repeated using HEK cells transfected with IL-15Rα such that they expressed uncomplexed IL-15Rα. The advantage of using cELISA in addition to classical ELISA is that a native protein complex is used to screen the antibodies.

[17] = target: T4, human IL-15 complexed with the IL-15 …; assay: SPR, run 2
Target sequence in this assay (P40933 49-162 limits assumed, one chain of several): as the sequence (P40933 49-162 E146A limits assumed) above, with A98E counted along it

[18] = target: T4, human IL-15 complexed with the IL-15 …; assay: SPR, run 5
[19] = target: T4, human IL-15 complexed with the IL-15 …; assay: SPR, run 4
[20] = target: T4, human IL-15 complexed with the IL-15 …; assay: SPR, antibody captured on Protein A chip, IL-15 complex as analyte
Experimental: Binding of Antibody 70 variants to human IL-15 complexed with the IL-15 Receptor-alpha were assessed using surface plasmon resonance on a BIACORE® T200 (GE Healthcare) system using a Protein A Sensor Chip (GE Healthcare). Antibodies were captured onto the second flow cell to a level of 150-200 RU. Purified cytokines were diluted to 10 μg/mL in HBS-EP+. Binding was measured by injection of […] of each cytokine at a flow rate of […] across both flow cells and allowing 180 s of dissociation time. The chip surface was regenerated between cycles with two 10 sec pulses of 50 mM sodium hydroxide. The running buffer used was HBS-EP+ (GE Healthcare) and all interactions were measured at 25° C. and data collection rate set to 10 Hz.
A summary of the surface plasmon resonance data is shown on FIG. 36. The affinity can be measured by the KD (the equilibrium dissociation constant between the antibody and its antigen). […] The large difference in KD between variants of Antibody 70 and AMG714 is driven by the dissociation rate (kd). IL-15 dissociates from AMG714 ten times faster than the rate of dissociation of IL-15 from Antibody 70 variants. […] This was tested in a cell based potency assay.

[21] = target: T4, human IL-15 complexed with the IL-15 …; assay: SPR; remark: listed apart in the source
[22] = target: T4, human IL-15 complexed with the IL-15 …; assay: SPR; remark: listed apart in the source

- binding result [1]: binds
- binding result [2]: binds
- binding result [3]: binds
- Max IC50 (pM), NK-92 proliferation assay [4]: 22 pM
- Mean IC50 (pM), NK-92 proliferation assay [4]: 14.7 pM
- Min IC50 (pM), NK-92 proliferation assay [4]: 10.2 pM
- IC 50 (NK-92) in pM [5]: 18.2 pM
- Kd [6]: 0.133 nM and 0.149 nM
- koff [6]: 3.47e-05 s⁻¹ and 3.75e-05 s⁻¹
- kon [6]: 252000 M⁻¹ s⁻¹ and 261000 M⁻¹ s⁻¹
- binding result [7]: no binding (tested: 10 µg/mL)
- binding result [8]: no binding (tested: 10 µg/mL)
- binding result [9]: no binding (tested: 10 µg/mL)
- binding result [10]: no binding (tested: 10 µg/mL)
- binding result [11]: no binding (tested: 10 µg/mL)
- binding result [12]: no binding (tested: 10 µg/mL)
B1: Antibody 70a (antibody, human IgG1, lambda)
heavy: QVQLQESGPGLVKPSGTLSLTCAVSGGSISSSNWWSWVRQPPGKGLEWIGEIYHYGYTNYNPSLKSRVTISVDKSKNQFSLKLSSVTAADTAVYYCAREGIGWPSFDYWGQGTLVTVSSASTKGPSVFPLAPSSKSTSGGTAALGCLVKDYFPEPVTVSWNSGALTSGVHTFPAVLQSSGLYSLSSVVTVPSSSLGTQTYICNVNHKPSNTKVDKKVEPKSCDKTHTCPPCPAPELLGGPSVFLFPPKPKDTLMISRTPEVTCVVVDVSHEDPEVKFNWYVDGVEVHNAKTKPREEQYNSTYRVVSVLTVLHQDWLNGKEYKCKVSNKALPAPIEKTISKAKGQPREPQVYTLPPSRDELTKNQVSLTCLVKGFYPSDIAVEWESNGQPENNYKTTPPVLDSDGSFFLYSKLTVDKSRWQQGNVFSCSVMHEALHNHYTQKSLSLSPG
light: SSELTQDPAASVALGQTVRITCQGDTLRSYYASWYQQKPGQAPILVIYGKNNRPSGIPDRFSGSSSGNTASLTITGAQAEDEADYYCNSRDLSGKNLVFGGGTKLTVLGQPKAAPSVTLFPPSSEELQANKATLVCLISDFYPGAVTVAWKADSSPVKAGVETTTPSKQSNNKYAASSYLSLTPEQWKSHRSYSCQVTHEGSTVEKTVAPTECS
notes: Heavy S54Y + N56Y + I82aS, light N30S + S93L

- Kd [13]: 0.43 nM
- Max IC50 (pM), NK-92 proliferation assay [4]: 29.8 pM
- Mean IC50 (pM), NK-92 proliferation assay [4]: 14.6 pM
- Min IC50 (pM), NK-92 proliferation assay [4]: 7.3 pM
- Kd [6]: 0.171 nM and 0.173 nM
- koff [6]: 4.44e-05 s⁻¹ and 4.32e-05 s⁻¹
- kon [6]: 249000 M⁻¹ s⁻¹ and 260000 M⁻¹ s⁻¹
- binding result [7]: no binding (tested: 10 µg/mL)
- binding result [8]: no binding (tested: 10 µg/mL)
- binding result [9]: no binding (tested: 10 µg/mL)
- binding result [10]: no binding (tested: 10 µg/mL)
- binding result [11]: no binding (tested: 10 µg/mL)
- binding result [12]: no binding (tested: 10 µg/mL)
B2: Antibody 70f (antibody, human IgG4 S228P, lambda)
heavy: QVQLQESGPGLVKPSGTLSLTCAVSGGSISSSNWWSWVRQPPGKGLEWIGEIYHYGYTNYNPSLKSRVTISVDKSKNQFSLKLSSVTAADTAVYYCAREGIGWPSFDYWGQGTLVTVSSASTKGPSVFPLAPCSRSTSESTAALGCLVKDYFPEPVTVSWNSGALTSGVHTFPAVLQSSGLYSLSSVVTVPSSSLGTKTYTCNVDHKPSNTKVDKRVESKYGPPCPPCPAPEFLGGPSVFLFPPKPKDTLYITREPEVTCVVVDVSQEDPEVQFNWYVDGVEVHNAKTKPREEQFNSTYRVVSVLTVLHQDWLNGKEYKCKVSNKGLPSSIEKTISKAKGQPREPQVYTLPPSQEEMTKNQVSLTCLVKGFYPSDIAVEWESNGQPENNYKTTPPVLDSDGSFFLYSRLTVDKSRWQEGNVFSCSVMHEALHNHYTQKSLSLSLG
light: B1 light

- IC50, NK-92 proliferation assay [14]: 0.1 nM
- Kd [15]: 1.07 nM
- koff [15]: 0.00016 s⁻¹
- kon [15]: 150000 M⁻¹ s⁻¹
- binding result [16]: no binding
- Kd [17]: 0.982 nM
- koff [17]: 0.000138 s⁻¹
- kon [17]: 141000 M⁻¹ s⁻¹
- IC 50 (NK-92) in pM [5]: 148 pM
- Kd [18]: 0.979 nM
- koff [18]: 0.000166 s⁻¹
- kon [18]: 170000 M⁻¹ s⁻¹
- Kd [19]: 1.28 nM
- koff [19]: 0.000182 s⁻¹
- kon [19]: 142000 M⁻¹ s⁻¹
- Kd [6]: 0.63 nM and 0.628 nM
- koff [6]: 9.43e-05 s⁻¹ and 9.31e-05 s⁻¹
- kon [6]: 148000 M⁻¹ s⁻¹ and 150000 M⁻¹ s⁻¹
- Kd [20]: 0.629 nM
B3: Antibody 4 (antibody, V domains shown, not shown: a dimerising Fc or GST)
VH: QVQLQESGPGLVKPSGTLSLTCAVSGGSISSSNWWSWVRQPPGKGLEWIGEIYHSGNTNYNPSLKSRVTISVDKSKNQFSLKLISVTAADTAVYYCAREGIGWPSFDYWGQGTLVTVSS
VL: SSELTQDPAASVALGQTVRITCQGDTLRNYYASWYQQKPGQAPILVIYGKNNRPSGIPDRFSGSSSGNTASLTITGAQAEDEADYYCNSRDSSGKNLVFGGGTKLTVLG
notes: from section 3.4 on as recombinant human IgG1 lambda; also called parent antibody; parental antibody

- Kd [21]: 1.58 nM
B4: VL_G050S (antibody, V domains shown)
VH: B3 VH
VL: SSELTQDPAASVALGQTVRITCQGDTLRNYYASWYQQKPGQAPILVIYSKNNRPSGIPDRFSGSSSGNTASLTITGAQAEDEADYYCNSRDSSGKNLVFGGGTKLTVL
notes: Antibody 4 with one substitution; also called ANTIBODY 29

- Kd [22]: 0.73 nM
B5: VL_K051H (antibody, V domains shown)
VH: B3 VH
VL: B4 VL with S49G, K50H
notes: Antibody 4 with one substitution; also called ANTIBODY 31
